Measured values as given in patent publication US11266642B2, “Small molecule inhibitors of HLA-DR3 binding for treating autoimmune thyroiditis” (ICAHN SCHOOL OF MEDICINE AT MOUNT SINAI, priority 2015, dated 2022).
No end group written: not given here. *: point of attachment. Biotin = O=C1N[C@H]2[C@H](CS[C@H]2CCCCC(=O)*)N1

Target: T1, HLA-DR3 on VAVY cells (HLA-DRβ1-Arg74 positive) (Homo sapiens, UniProt P01903+P01911, A100K/A102G/A103R/A169T/F55Y/I96L/K41T/L162R/M171V/P40S/Q125H/Q178H/Q39Y/R42S/S66N/T106N/T262R/W38E/Y61H)
T1 construct: VAVY B-cell line that is homozygous for DR3 (confirmed to contain DRβ1-Arg74); host or cells: VAVY B-cell line
Experiment: Tg.2098 peptide binding to VAVY cells, flow cytometry
Type: cell-based
Conditions: incubated without Ia (40% Captisol alone); biotinylated peptide
Experimental: VAVY cells (European Collection of Cell Cultures) were cultured in RPMI (ATCC, Manassas, Va.) supplied with 10% FBS (Sigma-Aldrich, St. Louis, Mo.), 1% Penicillin-Streptomycin (Corning, N.Y.), 2 mM glutamine (Corning, N.Y.) and […] ciprofloxacin hydrochloride (Hospira, Lake Forest, Ill.). Cells were grown at 37° C., 5% CO2 and passaged 1-2 times a week. Cells expressing DR2 (National Development and Research Institutes, Inc) were cultured using the same conditions as VAVY cells. N-terminal biotinylated peptide Tg.2098 was used to test for binding to VAVY cells which express HLA-DR3 on their surface (HLA-DRβ1-Arg74 positive). APC Streptavidin (BD Biosciences, Franklin Lakes, N.J.) was used to detect the biotinylated peptides. A scrambled peptide of Tg.2098 (scr2098) was used as a negative control. VAVY cells were seeded at 2.5×10^6 cells/mL in a 24-well plate (BD Biosciences) and pre-incubated for 7 hours with 0.025 mM of compound Ia or 40% Captisol (Ligand Pharmaceuticals, Inc, La Jolla, Calif.) [the vehicle used to dissolve test compound in this experiment], before 0.5 μM Tg.2098 was added. After 24 h incubation, cells were stained with PE mouse anti-human HLA-DR (BD Biosciences) and APC Streptavidin to detect binding of the peptide to VAVY cells and the inhibitory effect of Compound Ia. Inhibition was analyzed by flow cytometry. As a negative control, cells expressing HLA-DR2 were pre-incubated with example Ia or 40% Captisol, before biotinylated myelin basic protein (MBP) 87-99 (known binder to HLA-DR2) was added and incubated for 24 hours. HLA-DR2 cells were stained with PE mouse anti-human HLA-DR and APC Streptavidin to detect binding of biotinylated MBP87-99 to DR2 expressing cells and to assess the inhibitory effect of compound Ia on peptide binding. To confirm the ELISA results we performed binding inhibition studies using the VAVY B-cell line that is homozygous for DR3 (confirmed to contain DRβ1-Arg74). […]

T1 sequence (P01903 26-254, other chains not shown): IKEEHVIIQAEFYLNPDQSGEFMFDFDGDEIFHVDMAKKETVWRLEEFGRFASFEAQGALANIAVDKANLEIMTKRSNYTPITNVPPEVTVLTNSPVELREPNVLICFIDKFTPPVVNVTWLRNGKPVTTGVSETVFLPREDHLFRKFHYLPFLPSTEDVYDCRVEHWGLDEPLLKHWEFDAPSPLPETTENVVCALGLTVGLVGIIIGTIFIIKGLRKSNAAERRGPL

| binding of peptide to HLA-DR3-positive VAVY cells [%] | Sequence |
| --- | --- |
| 2.1 | HDLFSRIDSSVVVVP [scr.2098] |
| 42.7 | LSSVVVDPSIRHFDV (Biotin-LSSVVVDPSIRHFDV) [Tg.2098] |
